Among the data in article PMC11148139 are localisation_or_trafficking, enzymatic_activity and other values, retold here.

Like-named read-outs stand apart in the source and are kept apart here.

With “LDHA (lactate dehydrogenase A): C163A/C293A (2C-A)”, the localisation_or_trafficking result is “decreases” (other: S-nitrosylation at C163) and “decreases” (other: S-nitrosylation at C293).
Consider LDHA (lactate dehydrogenase A): C293A, for which, for the setting “other: S-nitrosylation at C293”, the enzymatic_activity result is on record as “decreases”.
In the case of LDHA (lactate dehydrogenase A): C163A, the enzymatic_activity result (other: S-nitrosylation at C163) is “decreases”.
For the substance “GCH1 (GTP cyclohydrolase I): S81D phosphomimetic”, the other result (phosphorylation at S81) is “increases”.
